Data reported in US20250043016A1 (SANYOU BIOPHARMACEUTICALS, published 2025).

Target: T1, recombinant human TNFR2 (SinoBiological, 10417-H03H) (human, UniProt P20333 23-257)
T1 construct: Bought protein; also called human recombinant TNFR2
T1 sequence (looked up): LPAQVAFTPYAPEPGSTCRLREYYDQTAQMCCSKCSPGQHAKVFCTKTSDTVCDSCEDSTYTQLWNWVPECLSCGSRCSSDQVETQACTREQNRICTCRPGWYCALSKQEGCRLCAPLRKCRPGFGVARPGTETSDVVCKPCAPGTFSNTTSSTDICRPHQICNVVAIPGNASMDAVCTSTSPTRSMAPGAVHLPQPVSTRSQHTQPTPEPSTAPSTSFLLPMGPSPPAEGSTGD
Experiment: ELISA on plate-coated recombinant human TNFR2, detection with anti-camelid-VHH-HRP; the axis is the lysate concentration
Procedure: The prepared positive clone lysate was subjected to ELISA affinity detection. The specific method was as follows: a 96-well ELISA plate was coated with 2 μg/mL recombinant human TNFR2 and incubated overnight at 4° C.; the next day, the well plate was washed 3 times with PBST, 5% skim milk was added, and blocking was performed for 2 h; subsequently, the well plate was washed 3 times with PBST, gradiently diluted positive clone lysates were added, and incubation was performed for 1 h; subsequently, the well plate was washed 3 times with PBST, Rabbit Anti-Camelid-VHH-HRP (Genescript, A01861-200) diluted at 1:8000 was added, and incubation was performed for 1 h; subsequently, the well plate was washed 6 times with PBST, TMB (SurModics, TMBS-1000-01) was added for color development in the dark for 5-10 min, and 2 M HCl was added to stop the reaction according to the color development results; the values at OD450 were read by a microplate reader (Molecular Devices, SpecterMax 190) and fitted by four parameters.

B1: NB92-161 VHH (positive clone lysate from E. coli) (VHH)
VHH: EVQLVESGGGLVQPGGSLRLSCAASGSIFSINDMGWYRQAPGKQRELVAAIGRGGGSTNYADSVKGRFTISRDNAKNTVYLQMNSLKPEDTAVYYCHAEISQLTWAFRDYWGQGTQVTVSS
notes: Tested as crude bacterial lysate from the phage display vector
B1 was tested. Which “EC50 (read off the curve)” value did it give?
The value was about 0.2 µg/mL.
